Residue numbers refer to the chain shown, from its start. Numbers in names are those of the source.
How the values were obtained:
TtCsm6 = target: T1, TtCsm6 (Thermus thermophilus, UniProt Q53W17); assay: crystal structure […] Å (co-crystallised with cA4); type: binding; details: post-cleavage state; two A2>P across the CARF dimer interface; pH 8.5, Mg2+ in crystal
T1 construct: gene csm6; synthesized gene, N-terminal 6xHis tag removed with PreScission protease; expressed in E. coli Rosetta (DE3); homodimer; CARF-HTH-HEPN
T1 sequence (Q53W17 1-464): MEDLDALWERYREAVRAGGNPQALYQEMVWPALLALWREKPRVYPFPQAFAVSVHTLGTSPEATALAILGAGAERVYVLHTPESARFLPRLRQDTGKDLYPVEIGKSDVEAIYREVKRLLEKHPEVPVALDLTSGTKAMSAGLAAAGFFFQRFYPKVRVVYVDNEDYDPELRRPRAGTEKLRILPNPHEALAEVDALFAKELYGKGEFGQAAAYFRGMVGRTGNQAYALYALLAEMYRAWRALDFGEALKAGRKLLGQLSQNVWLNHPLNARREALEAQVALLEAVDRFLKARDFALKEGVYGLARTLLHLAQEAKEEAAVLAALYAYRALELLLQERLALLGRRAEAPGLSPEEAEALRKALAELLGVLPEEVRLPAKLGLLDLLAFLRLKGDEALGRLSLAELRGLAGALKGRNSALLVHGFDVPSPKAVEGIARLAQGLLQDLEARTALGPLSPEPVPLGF

[1] = target: the molecule itself; assay: crystal structure; TtCsm6 (12 mg/mL) pre-incubated with cA4 1:1.2 for 3 h at room temperature; hanging drop, 25 °C; post-cleavage state with two A2>P bound; homodimer
[2] = target: the molecule itself; assay: crystal structure; TtCsm6 Y161A (10 mg/ml) pre-incubated with cA4 1:1.2 at 4 °C for 30 min; hanging drop, 25 °C; pre-cleavage state with cA4 bound; homodimer
[3] = target: the molecule itself; assay: crystal structure; TtCsm6 K137A (13 mg/mL) alone; hanging drop, 25 °C; apo state, no metal ion in the HEPN domain; homodimer

Molecule: Nc1ncnc2c1ncn2[C@@H]1O[C@H](CO)[C@@H](OP(=O)(O)OC[C@H]2O[C@@H](n3cnc4c(N)ncnc43)[C@@H]3OP(=O)(O)O[C@@H]32)[C@H]1O [A2 > P]
- crystal structure 1.81 Å (co-crystallised with cA4) (TtCsm6): cA4 in the CARF domain was cleaved into two A2 > P molecules

B1: Thermus thermophilus (Tt) Csm6, wild type (enzyme)
chain: T1 sequence (Q53W17 1-464)
notes: Csm6 of Thermus thermophilus, GenBank ID 81626039; synthesized cDNA in a modified pET vector; Crystallised after pre-incubation with cA4, which was cleaved to two A2>P in the crystal (post-cleavage state); Homodimer in the crystal; also called WT; source: E. coli Rosetta (DE3), purified (Ni-NTA, 15Q, Superdex 200); not shown: His6, N-terminal, cleaved
- binding result [1]: binds

B2: TtCsm6 Y161A mutant (enzyme, Thermus thermophilus)
chain: T1 sequence (Q53W17 1-464) with Y161A
notes: Csm6 of Thermus thermophilus, GenBank ID 81626039, with Y161A; Crystallised with uncleaved cA4 (pre-cleavage state); Homodimer in the crystal; source: E. coli Rosetta (DE3), purified (Ni-NTA, 15Q, Superdex 200); not shown: His6, N-terminal, cleaved
- binding result [2]: binds

B3: TtCsm6 K137A mutant (enzyme, Thermus thermophilus)
chain: T1 sequence (Q53W17 1-464) with K137A
notes: Csm6 of Thermus thermophilus, GenBank ID 81626039, with K137A; Homodimer in the crystal; also called apo-TtCsm6 (Ni-free structure); source: E. coli Rosetta (DE3), purified (Ni-NTA, 15Q, Superdex 200); not shown: His6, N-terminal, cleaved
- binding result [3]: binds

From paper PMC10897365, “Molecular mechanism of allosteric activation of the CRISPR ribonuclease Csm6 by cyclic tetra-adenylate” (The EMBO Journal, 2023)
